The values below come from paper PMC2761005, “Three-Dimensional Structure of N-Terminal Domain of DnaB Helicase and Helicase-Primase Interactions in Helicobacter pylori” (PLoS ONE, 2009).

The target in series [1] is C-terminal domain (CTD) of H. pylori DnaG primase (H. pylori) (UniProt P56064). The series is described as follows: SPR; Biacore 2000, 25°C; 750 RU of CTD of HpDnaG amine-coupled on a CM4 chip; helicase samples (10 µM) injected at 20 µl/min in 10 mM Hepes pH 7.4, 150 mM NaCl, 3 mM EDTA, 0.005% P20. For orientation: In SPR one partner is held on a chip, and binding of the other changes the refractive index at the surface.

Series [2] concerns the molecule itself. Briefly: SEC; Hi Load superdex-75 16/60 column, 20 mM Tris.Cl pH 7.5, 100 mM NaCl, 1 mM EDTA, 5 mM βME; mass deduced from a plot of gel filtration standards. In general terms: SEC sorts molecules by how far they enter the pores of the column.

Sequence of C-terminal domain (CTD) of H. pylori DnaG primase (H. pylori) (P56064 whole entry, the tested form may be a part): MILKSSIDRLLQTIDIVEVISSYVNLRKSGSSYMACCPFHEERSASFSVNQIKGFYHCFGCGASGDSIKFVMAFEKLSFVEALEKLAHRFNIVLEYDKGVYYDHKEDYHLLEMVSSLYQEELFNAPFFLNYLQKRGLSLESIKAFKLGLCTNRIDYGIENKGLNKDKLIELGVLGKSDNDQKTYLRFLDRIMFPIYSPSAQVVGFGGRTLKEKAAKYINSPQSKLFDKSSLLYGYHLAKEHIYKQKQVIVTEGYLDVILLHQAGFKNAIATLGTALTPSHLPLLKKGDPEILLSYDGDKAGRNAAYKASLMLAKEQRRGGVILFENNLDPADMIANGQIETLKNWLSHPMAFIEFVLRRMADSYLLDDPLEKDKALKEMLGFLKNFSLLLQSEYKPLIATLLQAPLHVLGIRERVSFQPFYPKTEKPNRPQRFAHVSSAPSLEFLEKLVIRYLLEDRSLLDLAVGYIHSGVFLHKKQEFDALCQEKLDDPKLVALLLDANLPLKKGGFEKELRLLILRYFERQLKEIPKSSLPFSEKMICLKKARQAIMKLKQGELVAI

B1: H. pylori DnaB helicase, full length (enzyme)
chain: MDHLKHLQQLQNIERIVLSGIVLANHKIEEVHSVLEPSDFYYPPNGLFFEIALKLHEEDCPIDENFIRQKMPKDKQIKEEDLVAIFAASPIDNIEAYVEEIKNASIKRKLFGLANTIREQALESAQKSSDILGAVEREVYALLNGSTIEGFRNIKEVLESAMDLITENQRKGSLEVTGIPTGFVQLDNYTSGFNKGSLVIIGARPSMGKTSLMMNMVLSALNDDRGVAVFSLEMSAEQLALRALSDLTSINMHDLESGRLDDDQWENLAKCFDHLSQKKLFFYDKSYVRIEQIRLQLRKLKSQHKELGIAFIDYLQLMSGSKATKERHEQIAEISRELKTLARELEIPIIALVQLNRSLENRDDKRPILSDIKDSGGIEQDADIVLFLYRGYIYQMRAEDNKIDKLKKEGKIEEAQELYLKVNEERRIHKQNGSIEEAEIIVAKNRNGATGTVYTRFNAPFTRYEDMPIDSHLEEGQETKVDYDIVTT
With B1, in series [1], the Kd is 2250 nM.

B2: N-terminal domain with longer linker (NTDL) of H. pylori DnaB helicase (residues 1-144) (domain or fragment)
chain: MDHLKHLQQLQNIERIVLSGIVLANHKIEEVHSVLEPSDFYYPPNGLFFEIALKLHEEDCPIDENFIRQKMPKDKQIKEEDLVAIFAASPIDNIEAYVEEIKNASIKRKLFGLANTIREQALESAQKSSDILGAVEREVYALLN
B2 returned a Kd in series [1] of 110 nM.

B3: N-terminal domain (NTD) of H. pylori DnaB helicase (residues 1-121) (domain or fragment, UniProt O25916 1-121, looked up)
chain: MDHLKHLQQLQNIERIVLSGIVLANHKIEEVHSVLEPSDFYYPPNGLFFEIALKLHEEDCPIDENFIRQKMPKDKQIKEEDLVAIFAASPIDNIEAYVEEIKNASIKRKLFGLANTIREQA
notes: Cloned NcoI/XhoI into pET 28a; also called NTD of HpDnaB; source: E. coli BL21 (DE3), purified (Ni-NTA, Superdex-75 gel filtration); not shown: His6, C-terminal, kept
B3: the “stoichiometry N” value in series [2] was 2.

As usually defined, the Kd is a measure of binding affinity in units of concentration. Higher therefore signals lower affinity. Broadly, the stoichiometry N is the number of molecules, sites or subunits per partner or assembly.
